Experimental findings from paper PMC12046049, “Filamin C dimerisation is regulated by HSPB7” (Nature Communications, 2025) are described below.

Residue numbers refer to the chain shown, from its start. In names and notes the source's numbering stands.

The labels stand for the following.
T1: HSPB5ACD (α-crystallin domain of HSPB5) (human)
T1 chain: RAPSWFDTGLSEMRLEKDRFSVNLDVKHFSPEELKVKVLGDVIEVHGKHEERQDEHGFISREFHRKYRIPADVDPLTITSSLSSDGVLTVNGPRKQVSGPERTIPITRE

B1: FLNCd24 (domain 24 of filamin C, residues 2630-2724), wild type (domain or fragment, human)
chain: GSKFSSDASKVVTRGPGLSQAFVGQKNSFTVDCSKAGTNMMMVGVHGPKTPCEEVYVKHMGNRVYNVTYTVKEKGDYILIVKWGDESVPGSPFKVKV
notes: residual Gly-Ser overhang left on the N-terminus after TEV cleavage of the His6 tag; filamin C, human, C-terminal Ig-like domain 24, residues 2630-2724; also called FLNCd24 WT; source: E. coli BL21(DE3), purified (HisTrap, TEV cleavage); not shown: His6, N-terminal, cleaved
B2: HSPB7ACD^C131S (domain or fragment)
chain: not shown
notes: residual Gly-Ser overhang left on the N-terminus after TEV cleavage of the His6 tag; HSPB7, human, core α-crystallin domain, residues 78-162 of isoform 2, C131S; numbers count on: isoform 2 (Q9UBY9-2); Mutation made to aid crystallisation; source: E. coli BL21(DE3), purified (HisTrap, TEV cleavage, HiTrap Q); not shown: His6, N-terminal, cleaved
B3: FLNCd24^Y2683E (phosphomimic) (domain or fragment, human)
chain: B1 chain with Y56E
notes: residual Gly-Ser overhang left on the N-terminus after TEV cleavage of the His6 tag; filamin C, human, domain 24, residues 2630-2724, Y2683E; source: E. coli BL21(DE3), purified (HisTrap, TEV cleavage); not shown: His6, N-terminal, cleaved
B4: HSPB7ACD (α-crystallin domain, residues 78-162 of isoform 2) (domain or fragment)
chain: not shown
notes: residual Gly-Ser overhang left on the N-terminus after TEV cleavage of the His6 tag; HSPB7, human, core α-crystallin domain, residues 78-162 of isoform 2; numbers count on: isoform 2 (Q9UBY9-2); source: E. coli BL21(DE3), purified (HisTrap, TEV cleavage, HiTrap Q); not shown: His6, N-terminal, cleaved
B5: FLNCd24^T2677D (phosphomimic) (domain or fragment, human)
chain: B1 chain with T50D
notes: residual Gly-Ser overhang left on the N-terminus after TEV cleavage of the His6 tag; filamin C, human, domain 24, residues 2630-2724, T2677D; source: E. coli BL21(DE3), purified (HisTrap, TEV cleavage); not shown: His6, N-terminal, cleaved
B6: HSPB5 C-terminal peptide (cognate peptide of HSPB5ACD) (peptide)
chain: ERTIPITRE
modifications: Limits are not printed. 156-164, containing the IPI motif, is taken by convention from the peptide in the HSPB5 ACD-peptide structure PDB 4M5S; check residues come from the IPI motif, not numbered in

For series [1], the target named is T2, HSPB7ΔN (residues 78-175 of isoform 2) (human, UniProt Q9UBY9-2 78-175).
T2 construct: residual Gly-Ser overhang left on the N-terminus after TEV cleavage of the His6 tag; HSPB7, human, residues 78-175 of isoform 2 (lacks the N-terminal region); numbers count on: isoform 2 (Q9UBY9-2); source: E. coli BL21(DE3), purified (HisTrap, TEV cleavage, HiTrap Q); not shown: His6, N-terminal, cleaved
The series can be described thus: native MS; HSPB7 construct at a range of FLNCd24 concentrations; competitive homo- and hetero-dimerisation fitted as a system of coupled equilibria; 200 mM ammonium acetate pH 6.9. The following applies: both partners purified.

Series [2] deals with the molecule itself. The series can be described thus: native MS; titration of FLNCd24 (WT or phosphomimic) alone; dimer to monomers; 200 mM ammonium acetate pH 6.9; three technical repeats.
Series [3] concerns the molecule itself. The experiment in a line: native MS; FLNCd24 alone, and mixed at a monomer ratio of 1:1 with HSPB7, HSPB7ΔN or HSPB7ACD; 200 mM ammonium acetate pH 6.9 (full-length HSPB7: 1 M).
For series [4], the target named is B1. The experiment in a line: crystal structure; HSPB7ACD^C131S and FLNCd24 mixed 4:1, heterodimer isolated by gel filtration in 20 mM HEPES pH 8.0; crystals in 0.1 mM HEPES, 20% w/v PEG 8000, pH 7.0; 2.9 Å. The following applies: both partners purified. (In general: Size exclusion chromatography separates by hydrodynamic size, large species first.)
Series [5] concerns the target B5. The experiment in a line: native MS; HSPB7 construct at a range of FLNCd24 concentrations; competitive homo- and hetero-dimerisation fitted as a system of coupled equilibria; 200 mM ammonium acetate pH 6.9. To be noted: both partners purified.
The target in series [6] is B1. The series is described as above. To be noted: both partners purified.
Series [7] deals with B3. The description is as above. The following applies: both partners purified.
For series [8], the target named is T1, HSPB5ACD (α-crystallin domain of HSPB5). The series can be described thus: native MS; ACD incubated with C-terminal peptide, peptide titration; 200 mM ammonium acetate pH 6.9; acetonitrile added to the source housing; fit with a Hill slope model for 1:1 binding. The following applies: both partners purified.
In series [9] the target is T3, HSPB1ACD (α-crystallin domain of HSPB1) (human).
T3 construct: HSPB1, human, α-crystallin domain; also called ACD of HSPB1
The description is as above. The following applies: both partners purified.

What is called Kd is a measure of binding affinity in units of concentration. What is called stoichiometry N is a count of units in the complex or per binding partner. In the case of B1, the Kd in [1] was found to be 6.7 ± 1.4 nM; in series [2] it was 75.9 ± 8.4 nM. Also, the “stoichiometry N” value in series [3] was 2.
With B2, the binding result in series [4] was “binds”.
Consider B3, for which the dissociation constant (Kd) in series [2] amounted to 4050 ± 557 nM.
On to B4, for which the Kd in [5] was 14.1 ± 0.5 nM; in [6], 3.9 ± 0.9 nM; in series [7] it was 2.2 ± 0.6 nM.
In turn, B5 returned a Kd in series [2] of 8.5 ± 1 nM.
Consider B6, for which, in series [8], the Kd is at most 100000 nM.
Molecule ITIPVTFE [HSPB1 C-terminal peptide (cognate peptide of HSPB1ACD)] returned a Kd in series [9] of at most 100000 nM.
